B1: SEQ ID NO 23 (peptide)
peptide: GLYFVAMNNLKAAGQ
notes: 15-mer peptide selected in silico from the S. aureus proteomes
B2: SEQ ID NO 40 (peptide)
peptide: YFRFQYFNPLKSERY
notes: as for B1
B3: SEQ ID NO 38 (peptide)
peptide: VLFYLRSNKRQIIEK
notes: as for B1
B4: SEQ ID NO 33 (peptide)
peptide: QRHFQIGYNRAARII
notes: as for B1
B5: SEQ ID NO 24 (peptide)
peptide: IIKKLFRLPAIKRFE
notes: as for B1
B6: SEQ ID NO 32 (peptide)
peptide: MHFIAISINHRTADV
notes: as for B1
B7: SEQ ID NO 21 (peptide)
peptide: EPINFILKSSTKLKA
notes: as for B1
B8: SEQ ID NO 30 (peptide)
peptide: LDQIIAQANLRLATM
notes: as for B1
B9: SEQ ID NO 34 (peptide)
peptide: SSNVYMFKTALKLAG
notes: as for B1
B10: SEQ ID NO 26 (peptide)
peptide: KADALKAITALKLQM
notes: as for B1
B11: SEQ ID NO 25 (peptide)
peptide: ILLGYFVAQRALVKA
notes: as for B1
B12: SEQ ID NO 36 (peptide)
peptide: SVTIIKSLQAIRVPF
notes: as for B1
B13: SEQ ID NO 27 (peptide)
peptide: KHQIRMLSIPRDTIS
notes: as for B1
B14: SEQ ID NO 39 (peptide)
peptide: WKRIGRLKSIPIFMY
notes: as for B1
B15: SEQ ID NO 31 (peptide)
peptide: LMGIRAFRKLLPNIP
notes: as for B1
B16: SEQ ID NO 22 (peptide)
peptide: FLKLFRITNPIARGL
notes: as for B1
B17: SEQ ID NO 29 (peptide)
peptide: KTLFVALNNKARIPE
notes: as for B1
B18: SEQ ID NO 28 (peptide)
peptide: KRIFKMSPIHHHFEL
notes: as for B1
B19: SEQ ID NO 35 (peptide)
peptide: STFIYKIANERLFSR
notes: as for B1
B20: SEQ ID NO 37 (peptide)
peptide: TSQFHVLRALRLAQK
notes: as for B1

Experimental findings from patent publication US20190241623A1 (EVAXION BIOTECH A S, published 2019) are described below.

The target of the first assay is T1, MHC Class II molecule DRB1*01:01 (UniProt P01903 26-216; P01911 30-227).
T1 construct: Assay done by Immunitrack; the construct of the MHC II molecule is not described
As to the kind of experiment: peptide:MHC II complex stability assay (Immunitrack).
As for B1, the binding result is “binds”.
B2: the binding result was “binds”.
With B3, the binding result is “binds”.
Consider B4, for which the binding result is on record as “binds”.
B5: the binding result is listed as “binds”.
With B6, the binding result is listed as “binds”.
As to B7, the binding result is listed as “binds”.
Consider B8, for which the binding result is reported as “binds”.
On to B9, for which the binding result is recorded as “binds”.
Same read-out and setting: with B10 the entry was “binds”; with B11, “binds”.
Take B12: the binding result is recorded as “binds”.
For B13, the binding result is given as “binds”.
Regarding B14, the binding result is listed as “binds”.
Turning to B15, the binding result is recorded as “binds”.
The same measure, in the same setting: then B16, with “binds”; and B17, with “binds”.
The same measure, in the same setting: then B18, with “binds”.
For B19, the binding result is listed as “binds”.
On to B20, for which the binding result is given as “binds”.

Another assay deals with T2, MHC Class II molecule DRB1*04:01 (UniProt P01903 26-216; P01911 30-227).
T2 construct: Assay done by Immunitrack; the construct of the MHC II molecule is not described
Described as above.
Consider B1, for which the binding result was “binds”.
As to B2, the binding result is “binds”.
Consider B3, for which the binding result is “binds”.
As for B4, the binding result is “binds”.
As for B5, the binding result was “binds”.
The same measure, in the same setting: then B6, with “binds”; and B7, with “binds”; and B8, with “binds”.
B9: the binding result was “binds”.
For B10, the binding result is on record as “binds”.
In the case of B11, the binding result is listed as “binds”.
Same read-out and setting: with B12 the entry was “binds”; with B13, “binds”; with B14, “binds”.
Regarding B15, the binding result was “binds”.
On the same count and under the same terms, then B16, with “binds”; and B17, with “binds”.
As to B18, the binding result is “binds”.
Still for that read-out and setting: then B19, with “binds”.
Turning to B20, the binding result is reported as “binds”.
